From patent US20230348852A1, “METHODS AND COMPOSITIONS FOR OCULAR CELL THERAPY” (NOVARTIS AG, priority 2020, published 2023)

What was measured:
[1] = system: genomic DNA purified from male human peripheral blood mononuclear cells; assay: Biochemical assay for potential off-target genomic sites cleaved by Cas9 and B2M guides; details: number of potential off-target sites, guide concentration 64 nM
Description: A biochemical method (See, e.g., Cameron et al., Nature Methods. 6, 600-606; 2017) was used to determine potential off-target genomic sites cleaved by Cas9 and selected B2M guides. Guides showing B2M indel activity were tested for potential off-target genomic cleavage sites with this assay. […] The number of potential off-target sites detected using a guide concentration of 64 nM in the biochemical assay are shown in Table 10. As a result of this analysis, several gRNAs were selected for analysis of potential off-target activity in limbal stem cells.

[2] = system: B2M; assay: sgRNA screening for B2M knockout in LSCs (nucleofection, FACS); assay type: cell-based, human; details: Cas9 protein SEQ ID NO: 106, LSCs at passage 3, FACS after around 3 days
Description: Cells were cultured under these conditions for 24-48 hours at 37° C. in 5% CO2.
LSCs were nuclofected with selected gRNAs (Table 6) followed by FACS analysis / MACS separation.
After scraping the cells, the reaction was stopped by using cell culture medium containing 10% Serum and transferred to a falcon tube. After counting cells using Vi-cell 300′000 cells were prepared per reaction by transferring 300′000 cells in single tubes and centrifuged at 1000 rpm for 5 min. The supernatant was aspirated using manually pipetting to avoid cell loss and the cells were resuspended in the Stem cell nucleofector solution II (Lonza, Cat #VPH-5022). Resuspend cells in nucleofector solution immediately before adding the Cas9 RNP:sgRNA mixture. To obtain the nucleofection mixture, 5 µg high concentrated (≥5 µg/µl) Cas9 protein of SEQ ID NO: 106 (volume = 0.78 µl) was mixed with 19.5 µg sgRNA of Table 6 (volume = 12.2 µl) and incubated for 20 min at room temperature. […] The Cas9 protein-guideRNA complex was added to the cell suspension and transferred to the electroporation cuvette immediately. Cells were transfected using the nucelofector device (Lonza, Amaxa Nucleofector II) and program A023. After nucleofection cells were transferred from cuvette to one well of a 24 well synthemax coated plate containing pre-warmed LSC medium including 3 µM LATS compound and 10 µM Rock inhibitor Y-27632 (Nature 1997, vol. 389, pp. 990-994). Incubate LSCs in a 5% CO2 incubator for around 3 days until cells are 90% confluent.
LSCs were treated with TryLE®Express Enzym (ThermoFisher, Cat #12605010) for 15 minutes in 5% CO2 at 37° C. After scraping the cells, the reaction was stopped by using cell culture medium containing 10% Serum and transferred to a falcon tube for a centrifugation step (1000 rpm, 5 minutes). After aspirating the medium cells were resuspended in 200 µl FACS buffer (PBS/10%FBS).
(§1) To analyze the expression of B2M and HLA-ABC, 5 µl APC mouse anti-human β2-microglobulin antibody (Biolegend, Cat#316312) and 20 µl PE mouse anti-human HLA-ABC antibody (BD Bioscience, Cat # 560168) were added to the cell suspension and incubated for 30 minutes on ice.
Cells were washed 3 times after antibody labelling with FACS buffer and resuspended in 200 µl in FACS buffer (depending on the cell number).
FACS data were analyzed using BD FACSDiva software and FlowJo software.

[3] = system: human B2M; assay: CRISPR/Cas9-mediated deletion of B2M in HEK293 (lipofection, FACS); assay type: cell-based; details: lipofection of tracrRNA, gRNA and Cas9 mRNA; FACS after 72 h
Description: One day before transfection, 500′000 HEK293cells (ATCC, Manassas, VA) were plated in a 35 mm dish and grown in DMEM/10%FBS. The following day, cells were transfected with a mixture of tracrRNA-gRNA-Cas9 mRNA. A stock of 10 micromolar was prepared resuspending 20 nanomoles of gRNA and 20 nanomoles tracrRNA in 2000 microlitre 10 millimolar Tris buffer pH7.4 each.
The mixture was added drop wise to the culture dish in 2.5 ml DMEM/10%FBS medium. The transfection reagent alone represented the transfection negative control.
After 6 h incubation in 5% CO2 at 37° C. medium was replaced with fresh DMEM/10%FBS medium. After 72 h in a 5% CO2 incubator cells were prepared for FACS analysis. FACS analysis: HEK293 cells were treated with Accutase (ThermoFisher, Cat # A1110501) for 20 minutes in 5% CO2 at 37° C. The reaction was stopped by using cell culture medium containing 10% Serum and transferred to a falcon tube for a centrifugation step (1000 rpm, 5 minutes). After aspirating the medium cells were resuspended in 200 microlitre FACS buffer (PBS/10%FBS).
as §1, with “microlitre” for “µl”, “Cat #316312)” for “Cat#316312)”, “ice. Cells were washed 3 times after antibody labelling with FACS buffer and resuspended in 500 microlitre in FACS buffer.” for “ice.”
Each sample was transferred to one well of a round bottom 96 well plate and analyzed on a BD LSRFortessa X-20 device. FACS data were analyzed using BD FACSDiva software.

[4] = system: B2M; assay: Targeted PCR and NGS (amplicon sequencing) of on-target and off-target sites in genome-edited LSCs; assay type: cell-based, human; details: for validated indels for off-target activity in LSCs: amplicon sequencing of potential off-target loci; for Number of sites positive for off-target activity in LSCs: of the potential off-target loci sequenced; for B2M purified rhAmpSeq indel: purified (B2M negative) LSC populations
Description: Potential CRISPR/Cas9-mediated cutting sites identified above were evaluated using targeted PCR and NGS in genome-edited expanded LSCs.
Selected sgRNAs (SEQ ID NO: 120, 162, 166, 167, 171, and 175) were further analyzed by amplicon sequencing in edited and non-edited cells. Primers flanking the potential off-target sites for each guide were used to detect indels by NGS analysis in edited LSCs and non-edited peripheral blood mononuclear cells. Sites that had either (1) a difference in mean indel percentage between edited and unedited cells greater than 0.5%; or (2) a p value less than 0.05 between edited and unedited indel were further analyzed. NGS sequence reads for such sites were assessed for characteristic indel patterns near the putative Cas9 cut site. Based on the results, we could assess the specificity of gRNAs and their suitability for therapeutic applications.

Row | Molecule | off-target Site_ Count [1] | B2M knockout efficiency in LSCs after nucleofection [2] [%] | B2M knockout efficiency in HEK293 [3] [%] | validated indels for off-target activity in LSCs [4] | Number of sites positive for off-target activity in LSCs [4] | B2M purified rhAmpSeq indel [4] [%] | further results
1 | CR000443: gRNA targeting human B2M; targeting domain SEQ ID NO: 135; sgRNA SEQ ID NO: 172 (nucleic acid, listed as RNA, chemistry not given here) guide: CGCGAGCACAGCUAAGGCCAGUUUUAGAGCUAGAAAUAGCAAGUUAAAAUAAGGCUAGUCCGUUAUCAACUUGAAAAAGUGGCACCGAGUCGGUGCUUUU | 117 | 25 | – | – | – | – | –
2 | 4-CR004366: gRNA targeting human B2M; targeting domain SEQ ID NO: 111; sgRNA SEQ ID NO: 162; from Dharmacon (nucleic acid, listed as RNA, chemistry not given here, gRNA targeting human B2M; from Dharmacon) guide: CAGUAAGUCAACUUCAAUGUGUUUUAGAGCUAGAAAUAGCAAGUUAAAAUAAGGCUAGUCCGUUAUCAACUUGAAAAAGUGGCACCGAGUCGGUGCUUUU | 92 | 22 | 48 | zero | 0 of 88 | 99.85±0.21 | Number of sites positive for off-target activity in LSCs ([4]; listed as SEQ ID NO: 162): no predicted sites tested positive for off-target activity; B2M purified rhAmpSeq indel ([4]; listed as SEQ ID NO: 162): ~ 99%
3 | CR000446: gRNA targeting human B2M; targeting domain SEQ ID NO: 136; sgRNA SEQ ID NO: 173 (nucleic acid, listed as RNA, chemistry not given here) guide: AGGGUAGGAGAGACUCACGCGUUUUAGAGCUAGAAAUAGCAAGUUAAAAUAAGGCUAGUCCGUUAUCAACUUGAAAAAGUGGCACCGAGUCGGUGCUUUU | 98 | 27 | – | – | – | – | –
4 | 8-HEYJA000004: gRNA targeting human B2M; targeting domain SEQ ID NO: 115; sgRNA SEQ ID NO: 166 (nucleic acid, listed as RNA, chemistry not given here) guide: ACUCACGCUGGAUAGCCUCCGUUUUAGAGCUAGAAAUAGCAAGUUAAAAUAAGGCUAGUCCGUUAUCAACUUGAAAAAGUGGCACCGAGUCGGUGCUUUU | 62 | 22 | 65 | zero | 0 of 60 | 99.95±0.07 | Number of sites positive for off-target activity in LSCs ([4]; listed as SEQ ID NO: 166): no predicted sites tested positive for off-target activity; B2M purified rhAmpSeq indel ([4]; listed as SEQ ID NO: 166): ~ 99%
5 | 9-HEYJA000005: gRNA targeting human B2M; targeting domain SEQ ID NO: 116; sgRNA SEQ ID NO: 167 (nucleic acid, listed as RNA, chemistry not given here) guide: UCACGUCAUCCAGCAGAGAAGUUUUAGAGCUAGAAAUAGCAAGUUAAAAUAAGGCUAGUCCGUUAUCAACUUGAAAAAGUGGCACCGAGUCGGUGCUUUU | 35 | 12 | 39 | zero | 0 of 35 | 99.80±0.26 | Number of sites positive for off-target activity in LSCs ([4]; listed as SEQ ID NO: 167): no predicted sites tested positive for off-target activity; B2M purified rhAmpSeq indel ([4]; listed as SEQ ID NO: 167): ~ 99%
6 | 6-HEYJA000001: gRNA targeting human B2M; targeting domain SEQ ID NO: 113; sgRNA SEQ ID NO: 164 (nucleic acid, listed as RNA, chemistry not given here) guide: GGCCGAGAUGUCUCGCUCCGGUUUUAGAGCUAGAAAUAGCAAGUUAAAAUAAGGCUAGUCCGUUAUCAACUUGAAAAAGUGGCACCGAGUCGGUGCUUUU | 8 | 33 | 47 | – | – | – | –
7 | CR000453: gRNA targeting human B2M; targeting domain SEQ ID NO: 137; sgRNA SEQ ID NO: 174 (nucleic acid, listed as RNA, chemistry not given here) guide: CACAGCCCAAGAUAGUUAAGGUUUUAGAGCUAGAAAUAGCAAGUUAAAAUAAGGCUAGUCCGUUAUCAACUUGAAAAAGUGGCACCGAGUCGGUGCUUUU | 82 | 5 | – | – | – | – | –
8 | CR000456: gRNA targeting human B2M; targeting domain SEQ ID NO: 139; sgRNA SEQ ID NO: 176 (nucleic acid, listed as RNA, chemistry not given here) guide: CUUACCCCACUUAACUAUCUGUUUUAGAGCUAGAAAUAGCAAGUUAAAAUAAGGCUAGUCCGUUAUCAACUUGAAAAAGUGGCACCGAGUCGGUGCUUUU | 66 | 3 | – | – | – | – | –
9 | CR000442: gRNA targeting human B2M; targeting domain SEQ ID NO: 134; sgRNA SEQ ID NO: 171 (nucleic acid, listed as RNA, chemistry not given here) guide: GGCCACGGAGCGAGACAUCUGUUUUAGAGCUAGAAAUAGCAAGUUAAAAUAAGGCUAGUCCGUUAUCAACUUGAAAAAGUGGCACCGAGUCGGUGCUUUU | 29 | 62 | – | zero | 0 of 28 | 99.10±0.26 | Number of sites positive for off-target activity in LSCs ([4]; listed as SEQ ID NO: 171): no predicted sites tested positive for off-target activity; B2M purified rhAmpSeq indel ([4]; listed as SEQ ID NO: 171): ~ 99%
10 | CR000455: gRNA targeting human B2M; targeting domain SEQ ID NO: 138; sgRNA SEQ ID NO: 175 (nucleic acid, listed as RNA, chemistry not given here) guide: UUACCCCACUUAACUAUCUUGUUUUAGAGCUAGAAAUAGCAAGUUAAAAUAAGGCUAGUCCGUUAUCAACUUGAAAAAGUGGCACCGAGUCGGUGCUUUU | 48 | 24 | – | zero | 0 of 46 | 99.33±0.32 | Number of sites positive for off-target activity in LSCs ([4]; listed as SEQ ID NO: 175): no predicted sites tested positive for off-target activity; B2M purified rhAmpSeq indel ([4]; listed as SEQ ID NO: 175): ~ 99%
